According to publication doi:10.1101/2023.02.25.529910 (bioRxiv, 2023):

Legend:
crystal structure = target: the molecule itself; assay: crystal structure
SEC = target: the molecule itself; assay: SEC

B1: gpVdL-AA (bacteriophage P2 gpV residues 97-211, H197A/H199A) (domain or fragment)
chain: ADALHIRFPDGAVIEYEPETSALTVSGIKTASVTASGSVTATVPVVMVKASTRVTLDTPEVVCTNRLITGTLEVQKGGTMRGNIEHTGGELSSNGKVLHTAKAPGDSGGTTGSPL
How did the “stoichiometry N” value (crystal structure) turn out when B1 was run?
Its value is 3.

B2: gpVdL-FF (bacteriophage P2 gpV residues 97-211, H197F/H199F) (domain or fragment)
chain: ADALHIRFPDGAVIEYEPETSALTVSGIKTASVTASGSVTATVPVVMVKASTRVTLDTPEVVCTNRLITGTLEVQKGGTMRGNIEHTGGELSSNGKVLHTFKFPGDSGGTTGSPL
With B2 as the protein, how does the “stoichiometry N” value (crystal structure) read?
The value was 3.

B3: gpV-DEL (bacteriophage P2 gpV with the Apex domain deleted, ends at Thr196 plus an exogenous Leu197) (domain or fragment)
chain: MNTLANIQELARALRNMIRTGIIVETDLNAGRCRVQTGGMCTDWLQWLTHRAGRSRTWWAPSVGEQVLILAVGGELDTAFVLPGIYSGDNPSPSVSADALHIRFPDGAVIEYEPETSALTVSGIKTASVTASGSVTATVPVVMVKASTRVTLDTPEVVCTNRLITGTLEVQKGGTMRGNIEHTGGELSSNGKVLHTL
Does B3 bind (SEC)?
Result: binds

B4: gpV-AA (full-length bacteriophage P2 gpV, H197A/H199A) (natural protein)
chain: MNTLANIQELARALRNMIRTGIIVETDLNAGRCRVQTGGMCTDWLQWLTHRAGRSRTWWAPSVGEQVLILAVGGELDTAFVLPGIYSGDNPSPSVSADALHIRFPDGAVIEYEPETSALTVSGIKTASVTASGSVTATVPVVMVKASTRVTLDTPEVVCTNRLITGTLEVQKGGTMRGNIEHTGGELSSNGKVLHTAKAPGDSGGTTGSPL
Does B4 bind (SEC)?
Result: binds

B5: gpV-FF (full-length bacteriophage P2 gpV, H197F/H199F) (natural protein)
chain: MNTLANIQELARALRNMIRTGIIVETDLNAGRCRVQTGGMCTDWLQWLTHRAGRSRTWWAPSVGEQVLILAVGGELDTAFVLPGIYSGDNPSPSVSADALHIRFPDGAVIEYEPETSALTVSGIKTASVTASGSVTATVPVVMVKASTRVTLDTPEVVCTNRLITGTLEVQKGGTMRGNIEHTGGELSSNGKVLHTFKFPGDSGGTTGSPL
Does B5 bind (SEC)?
Result: binds

B6: gpVdL-DEL (bacteriophage P2 gpV residues 97-196 plus an exogenous Leu197, Apex domain deleted) (domain or fragment)
chain: ADALHIRFPDGAVIEYEPETSALTVSGIKTASVTASGSVTATVPVVMVKASTRVTLDTPEVVCTNRLITGTLEVQKGGTMRGNIEHTGGELSSNGKVLHTL
Does B6 bind (crystal structure)?
Result: binds
